Assay results as given in US20240392024A1 (SHANGHAI CELGEN BIO PHARMACEUTICAL, published 2024).

T1: human TNFR2 on the cell membrane (human, UniProt P20333 23-461)
T1 construct: whole, on cells; One molecule for all cell formats; also called TNFR2-CHO cells; CHO-TNFR2
T1 sequence (looked up): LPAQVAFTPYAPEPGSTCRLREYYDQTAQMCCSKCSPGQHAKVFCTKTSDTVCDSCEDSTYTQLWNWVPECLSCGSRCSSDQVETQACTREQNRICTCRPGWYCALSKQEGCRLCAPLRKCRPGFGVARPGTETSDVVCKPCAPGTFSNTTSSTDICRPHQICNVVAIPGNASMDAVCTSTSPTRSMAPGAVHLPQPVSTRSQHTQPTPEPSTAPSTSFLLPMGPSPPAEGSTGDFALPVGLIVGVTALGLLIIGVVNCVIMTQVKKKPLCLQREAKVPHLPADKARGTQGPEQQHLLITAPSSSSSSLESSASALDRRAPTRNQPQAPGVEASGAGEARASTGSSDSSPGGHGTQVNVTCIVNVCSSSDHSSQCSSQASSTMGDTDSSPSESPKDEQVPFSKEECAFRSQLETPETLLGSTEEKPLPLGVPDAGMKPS

T2: WT
T2 construct: also called T cells of wild-type (WT) mice; mouse TNFR2 on the cell membrane
T2 chain: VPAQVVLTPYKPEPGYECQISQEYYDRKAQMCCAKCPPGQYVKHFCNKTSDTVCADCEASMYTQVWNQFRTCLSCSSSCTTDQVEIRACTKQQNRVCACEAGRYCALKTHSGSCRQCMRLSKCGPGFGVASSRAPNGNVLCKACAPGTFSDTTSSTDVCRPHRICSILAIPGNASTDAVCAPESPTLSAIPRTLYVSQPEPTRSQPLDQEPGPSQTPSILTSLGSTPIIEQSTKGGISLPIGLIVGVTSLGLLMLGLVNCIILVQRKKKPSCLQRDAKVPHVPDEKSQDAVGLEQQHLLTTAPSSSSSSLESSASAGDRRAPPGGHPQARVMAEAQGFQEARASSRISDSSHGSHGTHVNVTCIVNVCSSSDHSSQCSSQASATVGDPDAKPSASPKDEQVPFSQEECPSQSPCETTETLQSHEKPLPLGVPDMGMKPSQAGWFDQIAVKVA

T3: TNFR2-His (Sino Biological, 10417-H08H, NP_001057.1 Met1-Asp257, with multi-histidine tag expressed on … (human, UniProt P20333 23-257))
T3 construct: range 1-257; Bought protein; also called recombinant human TNFR2 protein; TNFR2-His antigen; not shown: C-terminal multi-histidine tag
T3 sequence (looked up): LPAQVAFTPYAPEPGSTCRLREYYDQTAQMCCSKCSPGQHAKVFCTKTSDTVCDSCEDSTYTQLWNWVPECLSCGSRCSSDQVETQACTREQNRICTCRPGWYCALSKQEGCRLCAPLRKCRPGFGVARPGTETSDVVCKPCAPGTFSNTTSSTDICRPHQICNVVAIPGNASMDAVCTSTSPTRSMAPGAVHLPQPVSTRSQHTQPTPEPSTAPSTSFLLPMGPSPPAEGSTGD


How the values were obtained:
[1] = biological target: T1, human TNFR2 on the cell membrane; test: flow cytometry on Jurkat-TNFR2 cells
Procedure: (§1) Purified human-mouse monoclonal antibodies against TNFR2 were co-cultured with TNFR2 positive Jurkat cells (Jurkat cells were transfected with pcDNA3.4-TNFR2 plasmid using conventional methods, and after screening, stable and highly expressed TNFR2 Jurkat cell lines were obtained) and stained. The antibody binding intensity was analyzed by flow cytometry. The specific steps are as follows: Jurkat-TNFR2 was counted, centrifuged, resuspended, then added to a 96-deep well plate, and the supernatant was discarded. The anti-TNFR2 antibody was gradient diluted, and added to the 96-deep well plate, After incubation and wash, the secondary antibody FITC-anti-human IgG (Abcam: 6854) was added, and the samples were detected using Beckman CytoFLEX.

WT = biological target: T2, WT; test: flow cytometry on ConA-stimulated spleen cells of WT mice, mCD3+ T cells
Procedure: (§2) The cells were stained again with Cy-3 anti-human IgG and FITC anti-mCD3 (BD, 555274) after washing, under the same incubation conditions. After washing, the detection was performed.

[2] = biological target: T1, human TNFR2 on the cell membrane; test: flow cytometry, Jurkat-TNFR2 cells
Procedure: as §1

[3] = biological target: T3, TNFR2-His (Sino Biological, 10417-H08H, …); test: ELISA, coated TNFR2-His
Procedure, shortened: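 Antibodies were serially diluted and incubated on blocked ELISA plates coated with C-terminally His-tagged recombinant human TNFR2. Detection used an enzyme-labelled anti-IgG secondary antibody, TMB development and a microplate reader, and the dilution series gave the EC50.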

[4] = biological target: T1, human TNFR2 on the cell membrane; test: flow cytometry on human PBMC, CD3+ T cells
Procedure: Purified anti-human TNFR2 human-mouse chimeric monoclonal antibodies were co-cultured with PBMC cells (Oricells) and stained. The binding of the antibody was analyzed by flow cytometry. The specific steps are as follows: PBMC cells (Oricells) were counted, centrifuged, resuspended, then added to a 96-deep well plate, and the supernatant was discarded. Diluted anti-TNFR2 monoclonal antibodies were added.

[5] = biological target: T1, human TNFR2 on the cell membrane; test: flow cytometry on ConA-stimulated spleen cells of hTNFR2-KI mice, mCD3+ T cells
Procedure: as §2

[6] = biological target: T3, TNFR2-His (Sino Biological, 10417-H08H, …); test: BLI, antibody captured on AHC probe, TNFR2 in solution
Procedure: The GATOR (ProbeLife) detection instrument and AHC (Pall, 185064), Human antibody Capture probe were used to detect the dissociation constant (Kd) of human-mouse chimeric TNFR2 monoclonal antibody.
The human-mouse chimeric TNFR2 monoclonal antibodies were diluted to 50 nM in binding buffer (Q buffer [PBS (10 mM PH7.4)+0.02% Tween 20+0.2% BSA). The recombinant human TNFR2 protein was diluted in Q buffer with a 2-fold gradient starting from the highest concentration of 100 nM. The kinetic association assay was conducted by placing the antibody capture sensor in the continuously diluted antigen solutions mentioned above. The Octet Data Acquisition software was pened and the New Kinetics Experiment-Basic Kinetics mode was selected.

EC50 [1]	binding result (WT)	percent of cells in the upper right quadrant (Q2-UR, mCD3+ and anti-hIgG+) (WT)	EC50 [2]	EC50 [3]	percent of cells in the upper right quadrant (Q1-UR, CD3+ and anti-human IgG Fc+) [4]	percent of cells in the upper right quadrant (Q2-UR, mCD3+ and anti-hIgG+) [5]	Kd [6]	koff [6]	kon [6]	Binder
0.0357 µg/mL	no binding	1.04%	0.036 µg/mL	0.278 nM	42.3%	36%	9.38 nM	0.00761 s⁻¹	811000 M⁻¹ s⁻¹	human-mouse chimeric TNFR2 monoclonal antibody 27F6-hFc (antibody, V domains shown, Mouse V regions of clone 27F6 with human constant regions) VH: EVQLQQSGTVLARPGASVKMSCKTSGYTFTSYWMHWVKQRPGQGLEWIGTIYPGNSDTSYNQKFKGKAKLTAVTSASTAYMELNSLTNEDSAVFYCTRENLLLRSYFFDYWGQGTTLTVSS VL: DIVMTQSPASLAVSLGQRATISCKASQSVDYDGDSYLNWYQQKPGQPPKLLIYAASNLPSGIPARFSGSGSGTDFTLNIHPVEEEDAATYYCQQSNEDPRTFGGGTKLEIK
0.0123 µg/mL	no binding	0.83%	0.012 µg/mL	0.265 nM	45.6%	46.2%	3.9 nM	0.00304 s⁻¹	780000 M⁻¹ s⁻¹	human-mouse chimeric TNFR2 monoclonal antibody 12E12-hFc (antibody, V domains shown, Mouse V regions of clone 12E12 with human constant regions; also called human-mouse chimeric 12E12 antibody) VH: EVQLQQSGAELVKPGASVKLSCTVSGFNIKDFYIHWVKQRPEQGLEWIGRVDPEDGNTEYAPNFQDRATMTTDTSSNTAYLQLSSLTSVDTAVYYCSTWDGFSYFDYWGLGTTLTVSS VL: QAVVTQESALTTSPGETVTLTCRSSTGPVTTNNYANWVQEKPDHLFTGLIGGTNDRAPGVPARFSGSLIGDKTALTITGTQTEDEAVYFCALWYRNHWVFGGGTKLTVL
